# Target: SARS-CoV-2 nsp12 (RNA-dependent RNA polymerase) (SARS-CoV-2, UniProt P0DTD1)
# Test: cryo-EM structure
binder,measurement,value
"SARS-CoV-2 nsp9 (full-length, residues N1–Q113) (natural protein) NNELSPVALRQMSCAAGTTQTACTDDNALAYYNTTKGGRFVLALLSDLQDLKWARFPKSDGTGTIYTELEPPCRFVTDTPKGPKVKYLYFIKGLNNLNRGMVLGSLAATVRLQ",binding result,binds
